Tested on: cGPS CHO-K1 cells
Test: Gene targeting (KI assay) of lacZ integration matrix in cGPS CHO-K1 cells, double G418/puromycin selection
Format: cell-based
Conditions: cGPS CHO-K1, pTV-DS-lacz integration matrix, G418 + puromycin selection
Description: Transfection: On D day, 0.5 μg of the pTV-DS-lacz (SEQ ID NO: 17) is transfected in cGPS CHO-K1 cells by using the PolyFect® reagent from Qiagen. One day after the transfection of the integration matrix (D+1), 1000 μg of the purified DPV15b/I-CreI N75/6× His (SEQ ID NO: 58) meganuclease protein is directly added into transfected cGPS CHO-K1 cells.
Selection: cGPS CHO-K1 cells are transfected with the protocol described above. 24 hours after transfection, the cells are washed and fresh medium supplemented with 0.6 mg/ml of G418 is added. After 10 days of G418 selection, the culture medium is replaced with complete medium supplemented with G418 at 0.6 mg/ml and puromycin at 10 μg/ml. 3 to 4 days later, double resistant clones are visualized through an inverted microscope. At this step, double resistant clones are either stained for lacz expression monitoring or picked up for amplification and molecular characterization. (see section 2.5)
X-gal staining: Culture medium is removed and LacZ-targeted double resistant cGPS CHO-K1 adherent cells are washed once with PBS. 5 ml of fixing buffer (100 mM phosphate buffer, 1 mM MgCl2, 0.5% (v/v) glutaraldehyde (Prolabo, 25% solution)) is added. After 10 min. of incubation on ice, fixing is replaced by 5 ml of washing buffer (100 mM phosphate buffer, 1 mM MgCl2, 0.02% (v/v) NP40). […]

B1: DPV15b/I-CreI N75/6× His: purified recombinant I-CreI N75 meganuclease with cell-penetrating peptide DPV15b fused at N-terminal and 6x histidine tag at C-terminal (protein)
chain: MGAYDLRRRERQSRLRRRERQSRNTKYNKEFLLYLAGFVDGDGSIIAQIKPNQSYKFKHQLSLTFQVTQKTQRRWFLDKLVDEIGVGYVRDRGSVSNYILSEIKPLHNFLTQLQPFLKLKQKQANLVLKIIEQLPSAKESPDKFLEVCTWVDQIAALNDSKTRKTTSETVRAVLDSLSEKKKSSPAAALEHHHHHH
Q: What does the source list for B1?
A: number of double resistant cell colonies generated: around 30; selection frequency: 3×10^−4

Source: US8476072B2, “Meganuclease recombination system” (Cellectis, priority 2008, dated 2013)
